± gives the standard deviation of the averaged measurements.
Assay: total protein half-life in vivo (active degradation + dilution); higher = more stable protein
[1] = E. coli NCM3722 delta-clpP delta-lon delta-hslV, growth: N-lim chemostat, doubling time 6 h
[2] = E. coli NCM3722 delta-clpP, growth: N-lim chemostat, doubling time 6 h
[3] = E. coli NCM3722 delta-hslV, growth: N-lim chemostat, doubling time 6 h
[4] = E. coli NCM3722 delta-smpB, growth: N-lim chemostat, doubling time 6 h
[5] = wild type E. coli NCM3722, growth: C-lim chemostat, doubling time 3 h
[6] = wild type E. coli NCM3722, growth: C-lim chemostat, doubling time 6 h
[7] = wild type E. coli NCM3722, growth: C-lim chemostat, doubling time 12 h
[8] = wild type E. coli NCM3722, growth: N-lim chemostat, doubling time 6 h
[9] = wild type E. coli NCM3722, growth: N-lim chemostat, doubling time 12 h
[10] = wild type E. coli NCM3722, growth: P-lim chemostat, doubling time 6 h
[11] = wild type E. coli NCM3722, growth: P-lim chemostat, doubling time 12 h
[12] = E. coli NCM3722 delta-lon, growth: N-lim chemostat, doubling time 6 h

Sequence	total protein half-life in vivo [1] [h]	total protein half-life in vivo [2] [h]	total protein half-life in vivo [3] [h]	total protein half-life in vivo [4] [h]	total protein half-life in vivo [5] [h]	total protein half-life in vivo [6] [h]	total protein half-life in vivo [7] [h]	total protein half-life in vivo [8] [h]	total protein half-life in vivo [9] [h]	total protein half-life in vivo [10] [h]	total protein half-life in vivo [11] [h]	total protein half-life in vivo [12] [h]
MEHISTTTLIIILIIMVVISAYFSGSETGMMTLNRYRLRHMAKQGNRSAKRVEKLLRKPDRLISLVLIGNNLVNILASALGTIVGMRLYGDAGVAIATGVLTFVVLVFAEVLPKTIAALYPEKVAYPSSFLLAPLQILMMPLVWLLNAITRMLMRMMGIKTDIVVSGSLSKEELRTIVHESRSQISRRNQDMLLSVLDLEKMTVDDIMVPRSEIIGIDINDDWKSILRQLSHSPHGRIVLYRDSLDDAISMLRVREAWRLMSEKKEFTKETMLRAADEIYFVPEGTPLSTQLVKFQRNKKKVGLVVNEYGDIQGLVTVEDILEEIVGDFTTSMSPTLAEEVTPQNDGSVIIDGTANVREINKAFNWHLPEDDARTVNGVILEALEEIPVAGTRVRIGEYDIDILDVQDNMIKQVKVFPVKPLRESVAE	6.45 ± 0.94	6.26 ± 0.14	6.04 ± 0.47	5.75 ± 0.47	3.02 ± 0.34	6.47 ± 1.1	9.51 ± 2.4	6.56 ± 0.41	11.6 ± 1	6 ± 0.074	10.9 ± 1	–
MNSHNITNESLALALMLVVVAILISHKEKLALEKDILWSVGRAIIQLIIVGYVLKYIFSVDDASLTLLMVLFICFNAAWNAQKRSKYIAKAFISSFIAITVGAGITLAVLILSGSIEFIPMQVIPIAGMIAGNAMVAVGLCYNNLGQRVISEQQQIQEKLSLGATPKQASAILIRDSIRAALIPTVDSAKTVGLVSLPGMMSGLIFAGIDPVKAIKYQIMVTFMLLSTASLSTIIACYLTYRKFYNSRHQLVVTQLKKK	–	6.44 ± 0.17	6 ± 0.27	5.86 ± 0.42	3.19 ± 0.54	5.5591 ± 0.0054	9.93 ± 4.5	5.87 ± 0.81	8.27 ± 3	6.28 ± 0.1	–	5.893 ± 0.034
MMNNKVSFTNSNNPTISLSAVIYFPPKFDETRQYQAIVLSHPGGGVKEQTAGTYAKKLAEKGFVTIAYDASYQGESGGEPRQLENPYIRTEDISAVIDYLTTLSYVDNTRIGAMGICAGAGYTANAAIQDRRIKAIGTVSAVNIGSIFRNGWENNVKSIDALPYVEAGSNARTSDISSGEYAIMPLAPMKESDAPNEELRQAWEYYHTPRAQYPTAPGYATLRSLNQIITYDAYHMAEVYLTQPTQIVAGSQAGSKWMSDDLYDRASSQDKRYHIVEGANHMDLYDGKAYVAEAISVLAPFFEETL	6.23 ± 1.9	4.63 ± 0.35	4.23 ± 0.18	4.02 ± 0.44	–	6.58 ± 0.55	11.2 ± 1.6	4.088 ± 0.028	6.51 ± 0.44	6.21 ± 0.18	13.7 ± 2.8	–
MLKLFSAFRKNKIWDFNGGIHPPEMKTQSNGTPLRQVPLAQRFVIPLKQHIGAEGELCVSVGDKVLRGQPLTRGRGKMLPVHAPTSGTVTAIAPHSTAHPSALAELSVIIDADGEDCWIPRDGWADYRTRSREELIERIHQFGVAGLGGAGFPTGVKLQGGGDKIETLIINAAECEPYITADDRLMQDCAAQVVEGIRILAHILQPREILIGIEDNKPQAISMLRAVLADSNDISLRVIPTKYPSGGAKQLTYILTGKQVPHGGRSSDIGVLMQNVGTAYAVKRAVIDGEPITERVVTLTGEAIARPGNVWARLGTPVRHLLNDAGFCPSADQMVIMGGPLMGFTLPWLDVPVVKITNCLLAPSANELGEPQEEQSCIRCSACADACPADLLPQQLYWFSKGQQHDKATTHNIADCIECGACAWVCPSNIPLVQYFRQEKAEIAAIRQEEKRAAEAKARFEARQARLEREKAARLERHKSAAVQPAAKDKDAIAAALARVKEKQAQATQPIVIKAGERPDNSAIIAAREARKAQARAKQAELQQTNDAATVADPRKTAVEAAIARAKARKLEQQQANAEPEQQVDPRKAAVEAAIARAKARKLEQQQANAEPEEQVDPRKAAVEAAIARAKARKLEQQQANAEPEQQVDPRKAAVEAAIARAKARKREQQPANAEPEEQVDPRKAAVEAAIARAKARKLEQQQANAVPEEQVDPRKAAVAAAIARAQAKKAAQQKVVNED	5.65 ± 0.73	2.67 ± 0.51	–	1.01 ± 0.033	1.3 ± 0.13	1.31 ± 0.069	1.76	1.16	–	1.8 ± 0.14	2.72 ± 0.58	> 8
METVFDALKAMGKATSIELAARLDISREEVLNELWELKKAGFVDKSAYTWRVADNNVQQEQPAQAELPEEITTATVAKISECDLTATIEQRGPQTADELATLFGTTSRKVASTLAMAISKGRLIRVNQGGKFRYCIPGDNLPAEPKAASVSPLWLSASSSACHGVLIITVITPSPTKNSATKMPEN	5.08 ± 0.26	–	–	1.14	1.42	–	–	–	–	–	–	–
MTALALFDLLKPNYALATQVEFTDPEIVAEYITYPSPNGHGEVRGYLVKPAKMSGKTPAVVVVHENRGLNPYIEDVARRVAKAGYIALAPDGLSSVGGYPGNDDKGRELQQQVDPTN [Q7DFU6]	2.25	–	–	–	–	–	–	–	–	–	–	–
MIRKSATGVIVALAVIWGGGTWYTGTQIQPGVEKFIKDFNDAKKKGEHAYDMTLSYQNFDKGFFNSRFQMQMTFDNGAPDLNIKPGQKVVFDVDVEHGPLPITMLMHGNVIPALAAAKVNLVNNELTQPLFIAAKNKSPVEATLRFAFGGSFSTTLDVAPAEYGKFSFGEGQFTFNGDGSSLSNLDIEGKVEDIVLQLSPMNKVTAKSFTIDSLARLEEKKFPVGESESKFNQINIINHGEDVAQIDAFVAKTRLDRVKDKDYINVNLTYELDKLTKGNQQLGSGEWSLIAESIDPSAVRQFIIQYNIAMQKQLAAHPELANDEVALQEVNAALFKEYLPLLQKSEPTIKQPVRWKNALGELNANLDISIADPAKSSSSTNKDIKSLNFDVKLPLNVVTETAKQLNLSEGMDAEKAQKQADKQISGMMTLGQMFQLITIDNNTASLQLRYTPGKVVFNGQEMSEEEFMSRAGRFVH	–	–	5.74	–	2.57	–	–	6.18	–	5.4	–	6.55

Source: the supplement of paper PMC11246515
